Measured values from patent publication US20260226168A1 (published 2026).

T1: human GPRC5D protein (UniProt Q9NZD1 1-345)
T1 chain: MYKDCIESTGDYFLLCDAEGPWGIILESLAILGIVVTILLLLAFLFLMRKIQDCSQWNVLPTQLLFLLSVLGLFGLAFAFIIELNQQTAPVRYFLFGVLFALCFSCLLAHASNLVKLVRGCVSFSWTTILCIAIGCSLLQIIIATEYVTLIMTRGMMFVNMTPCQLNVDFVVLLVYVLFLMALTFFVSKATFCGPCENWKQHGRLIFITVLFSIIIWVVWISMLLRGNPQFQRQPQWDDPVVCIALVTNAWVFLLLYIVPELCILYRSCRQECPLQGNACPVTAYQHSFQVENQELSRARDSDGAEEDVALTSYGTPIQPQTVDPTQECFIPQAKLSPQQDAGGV


Molecular target: T1, human GPRC5D protein
Experiment: FACS, cells with high expression of hGPRC5D

| Binder | EC50 [nM] |
| --- | --- |
| Chi-105 (antibody, V domains shown) VH: EVQLQQSGPELVKPGASVKMSCKASGYTFTDYYMNWVKQSHGKSLEWIGYIYPNNGGTGYNQRFKGKATLTADKSSSTAYMELRSLTSEDSAVYYCARWGGTRLGYYAMDYWGQGTSVTVSS VL: DIVMTQSQKFMSTSVGDRVSVTCKASQNVGTNVVWYQQKPGQSPKLLIYWASTRHTGVPDRFTGSGSGTDFTLTISNVQSEDLADYFCQQYSRYPYTFGGGTKLEIKR | 1.44 |
| Chi-169 (antibody, V domains shown) VH: EVKLVESGGGLVKPGASLKLSCAASGFTFSNYGMSWVRQTSDKRLEWVASISSGGGRIYYPDNVKGRFTISRENAKNTLYLQMSSLKSEDTALYYCTRHAMDNWGQGTSVIVSS VL: QIVLTQSPAIMSASPGEKVTMTCSASSSVSNMYWYQQKSGTSPKRWIYDTSKLASGVPARFSGSGSGTSYSLTISSMEAEDASTYYCQQWSSNPLTFGAGTTLELKR | 0.66 |
| Chi-131 (antibody, V domains shown) VH: EVQLQQSGPELVKPGASVKMSCKASGYTFTNYVMHWVKQKPGQGLEWIGYFNPYNDGTNYNEKFKGKATLTSDKSSNTAYMELSSLTSEDSAVYYCARGGVRRYFDVWGAGTTVTVSS VL: DIQMTQSPSSLSASLGERVSLTCRASQDIGSNLNWLQLGPDGTIKRLIYATFSLDSGVPKRFSGSRSGSDYSLTISSLESEDFVDYYCQQYANFPPTFGGGTKLEIKR | 0.66 |

Continued by falling EC50, values first:

| EC50 [nM] | Binder |
| --- | --- |
| 0.76 | Chi-128 (antibody, V domains shown) VH: DVQLVESGGGLVQPGGSRKVSCAASGFTFSSFGMHWVRQAPEKGLEWVAYISRGSSTIYYADTVKGRFTISRDNPKNTLFLQMTSLRSEDTAMYYCARSGYGSSSYYFDYWGQGTTLTVSS VL: ENVLTQSPAIMSASPREKVTMTCRASSSIRSSYLHWYQQKSGASPKLWIYSTSNLASGVPARFSGSGSGTSYSLTISSVEAEDAATYYCQQFSGYPLTFGGGTKLEIKR |
| 0.7 | Chi-89 (antibody, V domains shown) VH: EVQLVESGGDLVKPGGSLKLSCAASGFTFSSYGMSWVRQTPDKRLEWVATISSGGSYTYYPDSVKGRFTFSRDNAKNTLYLQMSSLKSEDTAMYYCVRQALRYHMDSWGQGTSVTVSS VL: DIVMTQSQKFMSTSVGDRVSVTCKASQNVGTNVAWYQQKPGQSPKALIYSASYRYSGVPDRFTGSGSGTDFTLTISNVQSEDLADFFCQQYYSYPWTFGGGTKLEIKR |
